In the RNAGym collection of RNA variant scans (doi:10.7554/elife.80360) one finds self-cleavage data, which are given here for 32 variants.

Sequences and labels used below:
B1: HDV Ribozyme (parent)
chain: GGCCGGCAUGGUCCCAGCCUCCUCGCUGGCGCCGGCUGGGCAACAUUCCGAGGGGACCGUCCCCUCGGUAAUGGCGAAUGGGACCCA

The variants in the series derive from B1. The series is described as follows: self-cleavage, relative activity (ratio to wild type); higher = more cleavage; co-transcriptional.
For GGCCGGCAUGGUCCCAGCCUCCUCGCUGGCGCCGGCUGGGCAGCAUUCCGAGGGGACCGUCCCCUCGGUAAUGGCGACUGGGACCCA, the self-cleavage came to 0.0415.

With GGCCGGCAUGGUCCCAGCCUCCUCGCUGGCGCCGGCUGGGCAGCAUUCCGAGUGGACCGUCCCCUCGGUAAUGGCGAAUGGGACCCA, the self-cleavage amounted to 0.577.

Turning to GGCCGGCAUGGUCCCAGCCUCCUCGCUGGCGCCGGCUGGGCAGCAUUCCGAGCGGACCGUCCCCUCGGUAAUGGCGAAUGGGACCCA, the self-cleavage was found to be 0.554.

As to GGCCGGCAUGGUCCCAGCCUCCUCGCUGGCGCCGGCUGGGCAGCAUUCCGAGGGGACCGUCCCCUCGGUAAUGGCGAAUGGCACCCA, the self-cleavage came out at 0.131.

As for GGCCGGCAUGGUCCCAGCCUCCUCGCUGGCGCCGGCUGGGCACCAUUCCGAGGGGACCGUCCCCUCGGGAAUGGCGAAUGGGACCCA, the self-cleavage was 0.68.

Regarding GGCCGGCAUGGUCCCAGCCUCCUCGCUGGCGCCGGCUGGGCAGCAUUCGGAGGGGACCGUCCCCUCGGUAAUGGCGAAUGGGACCCA, the self-cleavage amounted to 0.344.

As for GGCCGGCAUGGUCCCAGCCUCCUCGCUGGCGCCGGCUGGGCAGCAUUCCGAGGGGGCCGUCCCCUCGGUAAUGGCGAAUGGGACCCA, the self-cleavage was 0.26.

For the variant GGCCGGCAUGGUCCCAGCCUCCUCGCUGGCGCCGGCUGGGCAGCAUUCCGAGGAGACCGUCCCCUCGGUAAUGGCGAAUGGGACCCA, the self-cleavage is 0.378.

Consider GGCCGGCAUGGUCCCAGCCUCCUCGCUGGCGCCGGCUGGGCAGCAUUCCGAGGGGACCGACCCCUCGGUAAUGGCGAAUGGGACCCA, for which the self-cleavage stood at 0.594.

On to GGCCGGCAUGGUCCCAGCCUCCUCGCUGGCGCCGGCUGGGCAGCAUUCCGAGGGGACCGGCCCCUCGGUAAUGGCGAAUGGGACCCA, for which the self-cleavage stood at 0.755.

On to GGCCGGCAUGGUCCCAGCCUCCUCGCUGGCGCCGGCUGGGCAGCAUUCCGAGGGGACCGUCCCCUCGGUAGUGGCGAAUGGGACCCA, for which the self-cleavage came to 0.68.

Turning to GGCCGGCAUGGUCCCAGCCUCCUCGCUGGCGCCGGCUGGGCAGCAUUCCGAGGGGACCGUACCCUCGGUAAUGGCGAAUGGGACCCA, the self-cleavage came to 0.499.

Consider GGCCGGCAUGGUCCCAGCCUCCUCGCUGGCGCCGGCUGGGCAGCAUUCCGAGGGGACCGUUCCCUCGGUAAUGGCGAAUGGGACCCA, for which the self-cleavage was 0.739.

On to GGCCGGCAUGGUCCCAGCCUCCUCGCUGGCGCCGGCUGGGCAGCAUUCCGAGGGGACCGUCCCCUCGGUAAUGGCGAAUGAGACCCA, for which the self-cleavage stood at 0.0941.

For GGCCGGCAUGGUCCCAGCCUCCUCGCUGGCGCCGGCUGGGCAGCAUUCCGAGGGGACCGUCCCCUCGGUAAUGGCGAAUGGGAUCCA, the self-cleavage came to 0.426.

On to GGCCGGCAUGGUCCCAGCCUCCUCGCUGGCGCCGGCUGGGCAGCAUUCCGCGGGGACCGUCCCCUCGGUAAUGGCGAAUGGGACCCA, for which the self-cleavage amounted to 0.745.

In the case of GGCCGGCAUGGUCCCAGCCUCCUCGCUGGCGCCGGCUGGGCAGCAUUCCGUGGGGACCGUCCCCUCGGUAAUGGCGAAUGGGACCCA, the self-cleavage was determined as 0.646.

As to GGCCGGCAUGGUCCCAGCCUCCUCGCUGGCGCCGGCUGGGCAGCAAUCCGAGGGGACCGUCCCCUCGGUAAUGGCGAAUGGGACCCA, the self-cleavage amounted to 0.782.

For GGCCGGCAUGGUCCCAGCCUCCUCGCUGGCGCCGGCUGGGCAGCAUUCCGAUGGGACCGUCCCCUCGGUAAUGGCGAAUGGGACCCA, the self-cleavage worked out at 0.742.

Take GGCCGGCAUGGUCCCAGCCUCCUCGCUGGCGCCGGCUGGGCAGCAUUCCGAGGGGACCGUCCCCUAGGUAAUGGCGAAUGGGACCCA: the self-cleavage is 0.554.

Regarding GGCCGGCAUGGUCCCAGCCUCCUCGCUGGCGCCGGCUGGGCAGCAUUCCGAGGGGACCGUCACCUCGGUAAUGGCGAAUGGGACCCA, the self-cleavage is 0.554.

Take GGCCGGCAUGGUCCCAGCCUCCUCGCUGGCGCCGGCUGGGCAGAAUUCCGAGGGGACCGUCCCCUCGGUAAUGGCGAAUGGGACCCA: the self-cleavage was 0.684.

GGCCGGCAUGGUCCCAGCCUCCUCGCUGGCGCCGGCUGGGCAUCAUUCCGAGGGGACCGUCCCCUCGGUAAUGGCGAAUGGGACCCA: the self-cleavage came out at 0.546.

GGCCGGCAUGGUCCCAGCCUCCUCGCUGGCGCCGGCUGGGCAGCAUUCCGAGGGGACCGUCCCCUCGGUAAUGGCGAAUGGGACCCA: the self-cleavage was found to be 0.618.

On to GGCCGGCAUGGUCCCAGCCUCCUCGCUGGCGCCGGCUGGGCAGCAUUCCGAGGGGACCGUCCCCUCGGUAAUGUCGAAUGGGACCCA, for which the self-cleavage was found to be 0.243.

Take GGCCGGCAUGGUCCCAGCCUCCUCGCUGGCGCCGGCUGGGCAGCAUUCCGAGGGGACCGUCCCCUCGGUAAUGCCGAAUGGGACCCA: the self-cleavage worked out at 0.0791.

With GGCCGGCAUGGUCCCAGCCUCCUCGCUGGCGCCGGCUGGGCAUCGUUCCGAGGGGACCGUCCCCUCGGUAAUGGCGAAUGGGACCCA, the self-cleavage is 0.57.

As for GGCCGGCAUGGUCCCAGCCUCCUCGCUGGCGCCGGCUGGGCACCAUGCCGAGGGGACCGUCCCCUCGGUAAUGGCGAAUGGGACCCA, the self-cleavage stood at 0.302.

On to GGCCGGCAUGGUCCCAGCCUCCUCGCUGGCGCCGGCUGGGCACCAUCCCGAGGGGACCGUCCCCUCGGUAAUGGCGAAUGGGACCCA, for which the self-cleavage is 0.208.

Turning to GGCCGGCAUGGUCCCAGCCUCCUCGCUGGCGCCGGCUGGGCAGCAUUCCGAGGGGACCGUCCCCUCGGUAAUGGCGAACGGGACCCA, the self-cleavage came out at 0.0941.

Turning to GGCCGGCAUGGUCCCAGCCUCCUCGCUGGCGCCGGCUGGGCAGCAUUCCGAGGGGACCGUCCCCUCGGUAAUGGCGAAGGGGACCCA, the self-cleavage worked out at 0.199.

For the variant GGCCGGCAUGGUCCCAGCCUCCUCGCUGGCGCCGGCUGGGCAGCAUUACGAGGGGACCGUCCCCUCGGUAAUGGCGAAUGGGACCCA, the self-cleavage was 0.81.
